B1: chimpanzee Fab 1A5 (Fab, V domains shown)
VH: EVQLLESGGGLVQPGGSRRLSCAASGFTISDNVMHWVRQAPGKGLEWVALIYSADTTHYADSVKGRFTISRDNSKNTLYLQMDSLRPEDTAVYYCAREYCTGDTCFAHFDYWGQGTLVSVSS
VL: ELQMTQSPSSVSASVGDTVTIACRASQSITNYLSWYQQKPGKAPKLLIYHASTLQSGIPSRFSGSGSGTDFTLTISSLQPDDFATYYCHYGYGTHTFGQGTKLEIKRT

Assays:
[1] = target: DENV-2 antigenic variant NGC-V2 (dengue type 2 virus), P14340; test: cell-based or functional assay
chimpanzee Fab 1A5 = test: competition ELISA: Fab 1A5 (1.04 nM) pre-incubated with peptide in serial dilution, then binding to DENV-2 coated wells

| Binder | PRNT50 titer [1] | IC50 (chimpanzee Fab 1A5) |
| --- | --- | --- |
| B1 | > 70 µg/mL |  |
| DRGWGNGSGLFGKGG (modifications not checked) [fusion peptide …] |  | 170 µM |
